Experimental data published in the supplement of paper PMC11780869.

Test system: Bacillus subtilis
Assay: cleaved RNA product abundance (RNA/gDNA barcode ratio) relative to median wild-type variant (ratio to wild type); higher = more accumulation of the downstream cleavage product
In short: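 The B. subtilis chromosome carried reporter mRNAs, truncated aprE or tetM, containing barcoded RNase Y cleavage-site windows mutagenized using oligos with a 9% error rate. After growth in LB at 37°C from OD600 0.0003 to 0.3, cleaved RNA was gel-selected, reverse transcribed and barcode-sequenced next to genomic DNA barcodes, with UMI collapsing. Each construct's RNA:gDNA barcode ratio was scaled to the median construct with the unmutated site. That scaled ratio is reported as cleaved product abundance.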

[1] = experiment (reporter, strain, medium): exp 4a: truncated aprE reporter, strain BJT201 with 2% xylose (RNase J1 expressed), cleavage site: cggR-gapA (positions -7 to +36 mutated)
[2] = experiment (reporter, strain, medium): exp 8a: truncated aprE reporter, strain BJT201 with 2% xylose (RNase J1 expressed), cleavage site: glnRA (positions -5 to +31 mutated)
[3] = experiment (reporter, strain, medium): exp 2b: truncated aprE reporter, strain BJT200, cleavage site: cggR-gapA (positions -7 to +36 mutated)
[4] = experiment (reporter, strain, medium): exp 6: tetM reporter, strain 168, cleavage site: cggR-gapA (positions -7 to +36 mutated)

Row | Sequence | cleaved RNA product abundance [1] | cleaved RNA product abundance [2] | also measured
1 | ACAGACGAAGGAGCCGCAAAGAAGTTATTAAGGGATGAATAATCTCTCATTATAAATATCTCTCACTTATTTAAA | 0.351 | – | –
2 | ACAGACGAAGGAGCCGCAAAGAAGTTATTAAGGGAGAAATAATCCCTCAATATAAATATCTCTCACTTATTTAAA | 0.795 | – | –
3 | ACAGACGAAGGAGCCGCAAAGAAGTTATTAAGGGATGAATACTCCGTCAATATAAATATCTCTCACTTATTTAAA | 0.126 | – | –
4 | ACAGACGAAGGAGCCGCAAAGAAGATATTAACGGATGAATAATCCCTCAATATAAATATCTCTCACTTATTTAAA | 0.207 | – | –
5 | CGACATGTCCCGCTTCTTTCATTAATCCGTTAGCAACTGTATTGCTATATACATTTACATTTTAAGAGGAGGAAT | – | 1.47 | –
6 | CGACATGTCCCGCTTCTTTCATTAAACCGTTAGCAACTGTTTTGCTTTATACATTTACCTTTTAAGAGGAGGAAT | – | 0.165 | –
7 | CGACATGTCCCGCTTCTTTCATTAATCCGTTAGCAACTATTTTGCTATATACACTTACCTTTTAAGAGGAGGAAT | – | 1.29 | –
8 | ACAGACGAAGGAGCCGCAAAGCAGTTATTAAGGTATGAATAATCCCTCAATATAAATATCTCTCACTTATTTAAA | 0.0937 | – | –
9 | ACAGACGAAGGAGCCGCAAACAATTTATTAAGAGATGAATAATCCCTCAATATAAATATCTCTCACTTATTTAAA | 0.128 | – | –
10 | ACAGACGAAGGAGCCGCAAAGAAGTGATTAAGGGCTGAATAATCCCTCAATATAAATATCTCTCACTTATTTAAA | 0.309 | – | –
11 | ACAGACGAAGGAGCCGCAAAGAAATTATTAAGGGATGAATAATCCCTCAATATAAATATATCTCACTTATTTAAA | 1.19 | – | –
12 | ACAGACGAAGGAGCCGCTAAAAAGTTATTAAGGGATGAATAATCCCTCAATATAAATATCTCTCACTTATTTAAA | 1.1 | – | –
13 | ACAGACGAAGGAGCCGCAAAGAAGTTATCAAGGGATGAATAATCCCTCACTATAAATATCTCTCACTTATTTAAA | 0.306 | – | –
14 | ACAGACGAAGGAGCCGCAAAGAAGTTATTAAGGGATGAATAATCCCTCTATATACATATCTCTCACTTATTTAAA | 0.226 | – | cleaved RNA product abundance [3]: 0.248
15 | CGACATGTCCCGCTTCTTTCATTAATTCGTTAGCAACTGTTTTGCTATACACATTTACCTTTTAAGAGGAGGAAT | – | 0.585 | –
16 | CGACATGTCCCGCTTCTTTCATTAATCCGTTAGCAACTGTATTACTATATACATTTACCTTTTAAGAGGAGGAAT | – | 0.835 | –
17 | ACAGACGAAGGAGCCGCAAAGAAGTTATTAAGGGATAAATAATCCGTCAATATAAATATCTCTCACTTATTTAAA | 0.166 | – | cleaved RNA product abundance [3]: 0.132
18 | CGACATGTCCCGCTTCTTTCATTAATCCGTTAGCAAGTGTTTTTCTATATACATTTACCTTTTAAGAGGAGGAAT | – | 0.603 | –
19 | CGACATGTCCCGCTTCTTTCATTAATCCTTTAGTAACTGTTTTGCTATATACATTTACCTTTTAAGAGGAGGAAT | – | 0.378 | –
20 | CGACATGTCCCGCTTCTTTCATTATCCGTTAGCAACTGTTTTGCTATATACATTTACCTTTTAAGAGGAGGAATT | – | 0.941 | –

Row | Sequence | cleaved RNA product abundance [1] | cleaved RNA product abundance [2] | also measured
21 | CGACATGTCCCGCTTCTTTCATTAATCCGTTAGCAACTGTTTTACAATATACATTTACCTTTTAAGAGGAGGAAT | – | 0.534 | –
22 | CGACATGTCCCGCTTCTTTCATTAATCCGTTAGCAACTCATTTGCTATATACATTTACCTTTTAAGAGGAGGAAT | – | 1.46 | –
23 | ACAGACGAAGGAGCCGCAAAGAAGTTATTAGGGGATGAATAATCACTCAATATAAATATCTCTCACTTATTTAAA | 0.112 | – | cleaved RNA product abundance [3]: 0.114
24 | ACAGACGAAGGAGCCGCAAAGAAGTTATTAAGGGATAAATAATCCCTTAATATAAATATCTCTCACTTATTTAAA | 0.48 | – | cleaved RNA product abundance [3]: 0.71
25 | ACAGACGAAGGAGCCGCAAAGAAGATTTTAAGGCATGAATAATCCCTCAATATAAATATCTCTCACTTATTTAAA | 0.143 | – | –
26 | CGACATGTCCCGCTTCTTTCATTAATCCGTTAGCAACTATTTTGCTATATACATTTACCTTTTAAGAGGAGGAAT | – | 1.34 | –
27 | ACAGACGAAGGAGCCGCAAAGAAGTAATTAAGGGATGAATTATCCCTCAATATAAATATCTCTCACTTATTTAAA | 0.355 | – | –
28 | ACAGACGAAGGAGCCGCAAAGAAGTCATTAAGGGATGAATAATCCGTCAATATAAATATCTCTCACTTATTTAAA | 0.173 | – | cleaved RNA product abundance [3]: 0.124
29 | CGACATGTCCCGCTTCTTTCATTAATCCGTTAGCAACTGTTTTACTATATACATTTACTTTTTAAGAGGAGGAAT | – | 0.621 | –
30 | CGACATGTCCCGCTTCTTTCATTACGCCGTTAGCAACTGTTTTGCTATATACATTTACCTTTTAAGAGGAGGAAT | – | 1.03 | –
31 | ACAGACGAAGGAGCCGCAAAGTAGTTATTAAGGGATGAATAATCCCTCCATATAAATATCTCTCACTTATTTAAA | 0.487 | – | cleaved RNA product abundance [3]: 0.299
32 | ACAGACGAAGGAGCCGCAAAGAAGTTATTAAGGGAAGAATAATCCCTTAATATAAATATCTCTCACTTATTTAAA | 0.952 | – | cleaved RNA product abundance [3]: 1.05
33 | ACAGACGAAGGAGCCGCAAAGAATTTATTAAGGAATGAATAATCCCTCAATATAAATATCTCTCACTTATTTAAA | 0.125 | – | cleaved RNA product abundance [3]: 0.0897
34 | CGACATGTCCCGCTTCTTTCATTAATCCGTTAGCAACTGTATTGGTATATACATTTACCTTTTAAGAGGAGGAAT | – | 0.175 | –
35 | CGACATGTCCCGCTTCTTTCATTAATCCGTTAGCAACTGTTTTGCTATATACAATTACCTTTTAAGAGGAGGAAT | – | 0.983 | –
36 | ACAGACGAAGGAGCCGCAAAGAAGTTATTAAGGGATGAACAATCCCTCAATAAAAATATCTCTCACTTATTTAAA | 0.151 | – | –
37 | CGACATGTCCCGCTTCTTTCATTAATCCTTTAGCAAGTGTTTTGCTATATACATTTACCTTTTAAGAGGAGGAAT | – | 0.82 | –
38 | ACAGACGAAGGAGCCGCAAATAAGTTATTAAGGGATGAATAATCCCTCAATACAAATATCTCTCACTTATTTAAA | 0.106 | – | –
39 | CGACATGTCCCGCTTCTTTCATTAATCCGTTAGCCAATGTTTTGCTATATACATTTACCTTTTAAGAGGAGGAAT | – | 0.576 | –
40 | ACAGACGAAGGAGCCGCAAACAAGTTATTAAGGGATGAATAATCCCTGAATATAAATATCTCTCACTTATTTAAA | 0.455 | – | –

Row | Sequence | cleaved RNA product abundance [1] | cleaved RNA product abundance [2] | also measured
41 | ACAGACGAAGGAGCCGCAAAGAAGTTATTAAGGGTTGAATAATCCCACAATATAAATATCTCTCACTTATTTAAA | 0.0861 | – | –
42 | CGACATGTCCCGCTTCTTTCATTATTCCGTTAGCAACTGTTTTGCTATATACCTTTACCTTTTAAGAGGAGGAAT | – | 0.383 | –
43 | CGACATGTCCCGCTTCTTTCATTAATCCGTTAGCAACTCTTTTACTATATACATTTACCTTTTAAGAGGAGGAAT | – | 0.579 | –
44 | CGACATGTCCCGCTTCTTTCATTATTCCGTTAGCAACTATTTTGCTATATACATTTACCTTTTAAGAGGAGGAAT | – | 1.91 | –
45 | ACAGACGAAGGAGCCGCAAAGATGTTATTAAGGGATGAATGATCCCTCAATATAAATATCTCTCACTTATTTAAA | 0.51 | – | –
46 | ACAGACGAAGGAGCCGCAAAGAAGTTATTAAGGGATGAATAAGCCCTCAATATAAATATCTCTCACTTATTTAAA | 0.634 | – | cleaved RNA product abundance [3]: 0.683; cleaved RNA product abundance [4]: 0.775
47 | ACAGACGAAGGAGCCGCAAAGAAGTTATTAAGGCATGAATAATCCCTCACTATAAATATCTCTCACTTATTTAAA | 0.136 | – | cleaved RNA product abundance [3]: 0.083
48 | ACAGACGAAGGAGCCGCAAAGAAGTTATTATTGGATGAATAATCCCTCAATATAAATATCTCTCACTTATTTAAA | 0.149 | – | –
49 | ACAGACGAAGGAGCCGCAAAGAAGTTATTAAGGGATGTATAATCCCTCAATTTAAATATCTCTCACTTATTTAAA | 0.146 | – | cleaved RNA product abundance [3]: 0.218
50 | ACAGACGAAGGAGCCGCAAAGATGTTATTAAGGCATGAATAATCCCTCAATATAAATATCTCTCACTTATTTAAA | 0.104 | – | cleaved RNA product abundance [3]: 0.108
51 | ACAGACGAAGGAGCCGCAAATAAGTTATTAAAGGATGAATAATCCCTCAATATAAATATCTCTCACTTATTTAAA | 0.218 | – | cleaved RNA product abundance [3]: 0.195; cleaved RNA product abundance [4]: 0.19
52 | ACAGACGAAGGAGCCGCAAAGACGTTATTAAGGGATGACTAATCCCTCAATATAAATATCTCTCACTTATTTAAA | – | – | cleaved RNA product abundance [3]: 0.561
53 | ACAGACGAAGGAGCCGCAAAGAAGTTATTAAGGGATAAATATTCCCTCAATATAAATATCTCTCACTTATTTAAA | 1.01 | – | cleaved RNA product abundance [3]: 0.755
54 | CGACATGTCCCGCTTCTTTCATTAATCCGTTAGCAACTGTACTGCTATATACATTTACCTTTTAAGAGGAGGAAT | – | 0.328 | –
55 | ACAGACGAAGGAGCCGCAAAGAAGCTATTAAGGGATCAATAATCCCTCAATATAAATATCTCTCACTTATTTAAA | 0.425 | – | –
56 | CGACATGTCCCGCTTCTTTCATTAATCCTTAGCACCTGTTTTGCTATATACATTATCCTTTTAAGAGGAGGAATT | – | 0.144 | –
57 | CGACATGTCCCGCTTCTTTCATTAATCCGTTTGAAACTGTTTTGCTATATACATTTACCTTTTAAGAGGAGGAAT | – | 0.388 | –
58 | CGACATGTCCCGCTTCTTTCATTAATCCGTTATCAACTGGTTTGCTATATACATTTACCTTTTAAGAGGAGGAAT | – | 0.204 | –
59 | ACAGACGAAGGAGCCGCAAAGAAATTATTAAGGGATGAATAAACCCTCAATATAAATATCTCTCACTTATTTAAA | 0.49 | – | cleaved RNA product abundance [3]: 0.405
60 | ACAGACGAAGGAGCCGCAAAGAAGTTATTAAGGGATGAATATGCCCTCAATATAAATATCTCTCACTTATTTAAA | 0.363 | – | –
